Experimental data published in article PMC6667744 (Pharmacology Research & Perspectives, 2019).

Target: Nanoluc‐RXFP2 (UniProt Q8WXD0 1-754)
Assay: FRET or BRET

Nanoluc‐RXFP2, sequence (Q8WXD0 whole entry): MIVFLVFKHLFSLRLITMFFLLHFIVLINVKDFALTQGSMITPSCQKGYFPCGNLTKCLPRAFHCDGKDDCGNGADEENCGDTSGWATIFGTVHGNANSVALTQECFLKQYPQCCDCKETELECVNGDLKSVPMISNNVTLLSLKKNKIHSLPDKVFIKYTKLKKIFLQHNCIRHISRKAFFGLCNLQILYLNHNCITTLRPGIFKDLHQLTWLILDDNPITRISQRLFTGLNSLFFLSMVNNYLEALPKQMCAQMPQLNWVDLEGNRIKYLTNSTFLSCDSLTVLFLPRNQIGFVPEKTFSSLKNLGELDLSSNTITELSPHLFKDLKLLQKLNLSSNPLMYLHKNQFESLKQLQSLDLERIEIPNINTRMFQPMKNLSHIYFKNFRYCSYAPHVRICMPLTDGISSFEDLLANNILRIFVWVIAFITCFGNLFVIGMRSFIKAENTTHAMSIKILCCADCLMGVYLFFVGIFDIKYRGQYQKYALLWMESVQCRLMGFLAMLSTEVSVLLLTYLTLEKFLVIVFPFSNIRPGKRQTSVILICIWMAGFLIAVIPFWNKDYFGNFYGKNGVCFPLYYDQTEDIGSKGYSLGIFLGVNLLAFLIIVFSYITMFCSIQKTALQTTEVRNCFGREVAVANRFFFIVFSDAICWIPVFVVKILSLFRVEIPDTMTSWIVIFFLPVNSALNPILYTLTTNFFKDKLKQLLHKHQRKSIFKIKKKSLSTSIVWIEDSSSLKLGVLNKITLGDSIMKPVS

B1: mCitrine‐RXFP1 (receptor)
chain: QDVKCSLGYFPCGNITKCLPQLLHCNGVDDCGNQADEDNCGDNNGWSLQFDKYFASYYKMTSQYPFEAETPECLVGSVPVQCLCQGLELDCDETNLRAVPSVSSNVTAMSLQWNLIRKLPPDCFKNYHDLQKLYLQNNKITSISIYAFRGLNSLTKLYLSHNRITFLKPGVFEDLHRLEWLIIEDNHLSRISPPTFYGLNSLILLVLMNNVLTRLPDKPLCQHMPRLHWLDLEGNHIHNLRNLTFISCSNLTVLVMRKNKINHLNENTFAPLQKLDELDLGSNKIENLPPLIFKDLKELSQLNLSYNPIQKIQANQFDYLVKLKSLSLEGIEISNIQQRMFRPLMNLSHIYFKKFQYCGYAPHVRSCKPNTDGISSLENLLASIIQRVFVWVVSAVTCFGNIFVICMRPYIRSENKLYAMSIISLCCADCLMGIYLFVIGGFDLKFRGEYNKHAQLWMESTHCQLVGSLAILSTEVSVLLLTFLTLEKYICIVYPFRCVRPGKCRTITVLILIWITGFIVAFIPLSNKEFFKNYYGTNGVCFPLHSEDTESIGAQIYSVAIFLGINLAAFIIIVFSYGSMFYSVHQSAITATEIRNQVKKEMILAKRFFFIVFTDALCWIPIFVVKFLSLLQVEIPGTITSWVVIFILPINSALNPILYTLTTRPFKEMIHRFWYNYRQRKSMDSKGQKTYAPSFIWVEMWPLQEMPPELMKPDLFTYPCEMSLISQSTRLNSYS
In the case of B1, the “BRET signal relative to that of Nanoluc-RXFP1 with mCitrine-RXFP1” value is reported as ~75%.
